# According to patent US20030191058A1 (WALTER AND ELIZA INSTITUTE OF MEDICAL RESEARCH, published 2003):
# Square brackets hold non-standard residues; d marks the D form. * marks the point of attachment. Biotin = O=C1N[C@H]2[C@H](CS[C@H]2CCCCC(=O)*)N1; pY = N[C@@H](Cc1ccc(OP(=O)(O)O)cc1)C(=O)O
# T1: recombinant murine SOCS-3, hexahistidine tagged (expressed from pET15b in E. coli, refolded) (murine, UniProt O35718 1-225)
# T1 construct: also called recombinant SOCS-3; suppressor of cytokine signalling 3; not shown: hexahistidine tag from vector pET15b (NdeI/BamHI cloning)
# T1 sequence (looked up): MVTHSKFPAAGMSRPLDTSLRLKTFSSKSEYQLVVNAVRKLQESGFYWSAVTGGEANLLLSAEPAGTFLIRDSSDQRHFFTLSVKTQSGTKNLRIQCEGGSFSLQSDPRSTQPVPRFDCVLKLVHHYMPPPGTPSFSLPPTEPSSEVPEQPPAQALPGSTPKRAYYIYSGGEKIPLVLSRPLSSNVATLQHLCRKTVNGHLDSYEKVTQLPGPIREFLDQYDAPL
# B1: pY914 QTVRQGG(pY)MPQ gp130 (907-917) (peptide)
# peptide: Biotin-QTVRQGG[pY]MPQ-NH2
# SMILES: CSCC[C@H](NC(=O)[C@H](Cc1ccc(OP(=O)(O)O)cc1)NC(=O)CNC(=O)CNC(=O)[C@H](CCC(N)=O)NC(=O)[C@H](CCCNC(=N)N)NC(=O)[C@@H](NC(=O)[C@@H](NC(=O)[C@H](CCC(N)=O)NC(=O)CCCC[C@@H]1SC[C@@H]2NC(=O)N[C@@H]21)[C@@H](C)O)C(C)C)C(=O)N1CCC[C@H]1C(=O)N[C@@H](CCC(N)=O)C(N)=O
# notes: also called biotinylated gp130(907-917) phosphopeptide; member of the group m25
# B2: pY765 STVVHSG(pY)RHQVPSV gp130 (758-772) (peptide)
# peptide: Biotin-STVVHSG[pY]RHQVPSV-NH2
# SMILES: CC(C)[C@H](NC(=O)[C@H](CO)NC(=O)[C@@H]1CCCN1C(=O)[C@@H](NC(=O)[C@H](CCC(N)=O)NC(=O)[C@H](Cc1c[nH]cn1)NC(=O)[C@H](CCCNC(=N)N)NC(=O)[C@H](Cc1ccc(OP(=O)(O)O)cc1)NC(=O)CNC(=O)[C@H](CO)NC(=O)[C@H](Cc1c[nH]cn1)NC(=O)[C@@H](NC(=O)[C@@H](NC(=O)[C@@H](NC(=O)[C@H](CO)NC(=O)CCCC[C@@H]1SC[C@@H]2NC(=O)N[C@@H]21)[C@@H](C)O)C(C)C)C(C)C)C(C)C)C(N)=O
# notes: also called biotinylated gp130(758-772) phosphopeptide; member of the group m25
# B3: biotinylated gp130(674-688) phosphopeptide (peptide)
# peptide: Biotin-FNSKDQM[pY]SDGNFTD-NH2
# SMILES: CSCC[C@H](NC(=O)[C@H](CCC(N)=O)NC(=O)[C@H](CC(=O)O)NC(=O)[C@H](CCCCN)NC(=O)[C@H](CO)NC(=O)[C@H](CC(N)=O)NC(=O)[C@H](Cc1ccccc1)NC(=O)CCCC[C@@H]1SC[C@@H]2NC(=O)N[C@@H]21)C(=O)N[C@@H](Cc1ccc(OP(=O)(O)O)cc1)C(=O)N[C@@H](CO)C(=O)N[C@@H](CC(=O)O)C(=O)NCC(=O)N[C@@H](CC(N)=O)C(=O)N[C@@H](Cc1ccccc1)C(=O)N[C@H](C(=O)N[C@@H](CC(=O)O)C(N)=O)[C@@H](C)O
# Legend:
# [1] = biological target: recombinant murine SOCS-3, hexahistidine tagged (expressed from pET15b in E. coli, refolded) (murine) (UniProt O35718); assay: SPR competition assay, reference gp130(750-764) phosphopeptide
# [2] = biological target: recombinant murine SOCS-3, hexahistidine tagged (expressed from pET15b in E. coli, refolded) (murine) (UniProt O35718); assay: SPR competition assay, soluble peptide against immobilised biotin-gp130(750-764) phosphopeptide, ~100 nM SOCS-3
# [3] = biological target: EPOR/gp130 chimeric receptor (erythropoietin receptor extracellular domain and gp130 cytoplasmic domain); assay: cell-based or functional assay
# [4] = biological target: EPOR/gp130Y757F chimeric receptor (EPO receptor extracellular domain and gp130 cytoplasmic domain with tyrosine 757 mutated to phenylalanine); assay: cell-based or functional assay
# [5] = biological target: recombinant murine SOCS-3, hexahistidine tagged (expressed from pET15b in E. coli, refolded) (murine) (UniProt O35718); assay: SPR competition assay, soluble peptide against immobilised biotin-gp130(750-764) phosphopeptide
# [6] = biological target: recombinant murine SOCS-3, hexahistidine tagged (expressed from pET15b in E. coli, refolded) (murine) (UniProt O35718); assay: as above; remark: listed apart in the source
# [7] = biological target: T1, recombinant murine SOCS-3, …; assay: pull-down: biotinylated phosphopeptide on streptavidin-agarose, eluate on SDS-PAGE
# Procedure: After washing and elution of bound protein, samples were analyzed by SDS-PAGE.
# Biotinylated phosphopeptides were also prepared corresponding to the known tyrosine phosphorylation sites in murine STAT-1 (Y701) and STAT-3 (Y705). […] Following removal of the protein solution, resin was washed twice with 1 mL PBS/0.1% v/v Tween-20, and bound protein eluted with 25 μL of SDS sample buffer containing 10 mM DTT, Samples were analyzed by SDS-PAGE on 12% w/v polyacrylamide gels.
Molecule,IC50 analogue/IC50 wild-type [1],IC50 [2] [nM],also measured
gp130(750-764) phosphopeptide analogue STASTVE(pY)STAVHSG,31,3400,
truncated gp130 phosphopeptide AcE(pY)STVVHSG,8.8,970,
truncated gp130 phosphopeptide STASTVE(pY)STVV,10,1100,
gp130(750-764) phosphopeptide analogue STASTVE(pY)ATVVHSG,0.65,72,
truncated gp130 phosphopeptide AcTVE(pY)STVVHSG,1.1,120,
gp130(750-764) phosphopeptide analogue STASTVE(pY)STVVASG,7,770,
"SOCS-3 expressed in transiently transfected 293T cells (Flag-tagged, detected with anti-Flag antibody)",,,50% inhibition of EPO-induced APRE-luc luciferase activity in 293T cells (amount of SOCS-3 DNA transfected) [3]: 4 ng; 50% inhibition of EPO-induced APRE-luc luciferase activity in 293T cells (amount of SOCS-3 DNA transfected) [4]: 54 ng
truncated gp130 phosphopeptide STASTVE(pY)STVVHS,0.55,61,
JAK3 activation loop phosphopeptide LPLGKD(PY)YVVREPGQ,,,IC50 [5]: 140000 nM; fold weaker affinity than gp130(750-764) [1]: 1000 fold; IC50 [6]: 110000 nM
truncated gp130 phosphopeptide Ac(pY)STVVHSG,87,9600,
truncated gp130 phosphopeptide STASTVE(pY)STVVH,0.7,77,
truncated gp130 phosphopeptide analogue AcVA(pY)STVVHSG,5,550,
JAK1 activation loop phosphopeptide IETDKE(pY)YTVKDDRD,,,IC50 [5]: 230000 nM
gp130(750-764) phosphopeptide analogue STASTVE(pY)STVAHSG,10,1100,
truncated gp130 phosphopeptide analogue AcAE(pY)STVVHSG,5.3,580,
JAK2 activation loop phosphopeptide LPQDKE(pY)YKVKEPGE,,,fold weaker affinity than gp130(750-764) [1]: 10000 fold
B1,,,binding result [7]: no binding (tested: 50 µg/mL)
B2,,,binding result [7]: no binding (tested: 50 µg/mL)
B3,,,binding result [7]: no binding (tested: 50 µg/mL)
